One protein from FireProtDB (doi:10.1021/bi00485a005) can be followed below.

For this data set the following is noted: Aspergillus oryzae (strain ATCC 42149 / RIB 40), 25 °C, Urea, Fluorescence, NaCl 0.2 M, whole UniProt chain shown.

B1: Guanyl-specific ribonuclease T1 wild type, P00651 (protein)
chain: MMYSKLLTLTTLLLPTALALPSLVERACDYTCGSNCYSSSDVSTAQAAGYQLHEDGETVGSNSYPHKYNNYEGFDFSVSSPYYEWPILSSGDVYSGGSPGADRVVFNENNQLAGVITHTGASGNNFVECT
As for B1, where the note is “pH 6.02, MES 30 mM”, the denaturant m value worked out at 1.25 kcal/mol/M, the “denaturant midpoint (higher = more stable)” value was found to be 6.58 M and the unfolding free energy was 8.24 kcal/mol. Further, for the setting “pH 8.02, HEPPSO 30 mM”, the denaturant m value was determined as 1.35 kcal/mol/M, the “denaturant midpoint (higher = more stable)” value stood at 4.38 M and the unfolding free energy was 5.92 kcal/mol.
